Tests used:
[1] = system: HEK293T cells; test: Optimal copy number of riboswitch, GFP plasmids, fluorescence plate reader; type: cell-based; conditions: plasmids with 0-4 copies of riboswitch, GFP transgene
Procedure: The protocol for both assays are outlined in FIGS. 8A and 8B. For determining optimal copy numbers, plasmids containing 0-4 copies of each riboswitch were created with the transgene as green fluorescence protein (GFP) for readout. HEK293T cells were plated in a 12-well plate and on day 2 transfected with 1 μg of each plasmid DNA. On day 3, cells were observed by fluorescent microscopy (excitation 467-498 nm) and fluorescence was quantified using a plate reader (488 nm excitation 520 nm emission).
As depicted in FIG. 9A, L2Bulge18tc riboswitch was one ON-type riboswitch tested. The cells were treated with 0 μM, 25 μM, 50 μM, 75 μM, and 100 µM of tetracycline (ligand), with the fluorescent microscopy results shown in FIG. 9D.
L2Bulge 9 was also tested (using activating ligand Theophylline), and the optimal copy number was determined to be 3.

[2] = system: HEK293T cells; test: Dynamic range / dose-responsiveness to activating ligand, firefly luciferase constructs; type: cell-based; conditions: for Response to ligand in cell culture (firefly luminescence) / Dynamic Range: HEK293T cells; for Response to ligand in cell culture (firefly luminescence): dual luciferase assay, tetracycline or theophylline; for Dynamic Range: optimal copy number, 0-100 μM activating ligand; for Dynamic range compared with similar riboswitches known in the art: 0-100 μM respective ligand, with target miRNA sequence
Procedure: The riboswitches were evaluated in HEK293T cells to determine optimal copy number (largest dynamic range) and dose-responsiveness to its activating ligand using a dual luciferase assay. The ligand used were tetracycline and theophylline.
For determining dynamic range, constructs containing firefly luciferase containing the optimal copy number of the riboswitch were made. HEK293T cells were plated on day 1, and transfected on day 2 with 1 μg of plasmid DNA. Cells were treated with 0-100 μM of the ligand corresponding to the riboswitch and the luminescence was quantified on day 3 using plate reader.
Experiments as described in Example 2A were also carried out using the newly designed Tet-SLIM and Theo-SLIM switches including target miRNA sequence, as depicted in FIGS. 12A and 13A, respectively.

[3] = system: mouse retina; test: In vivo GFP fluorescence (cSLO) after intravitreal rAAV2 GFP-riboswitch cassette and ligand gavage; set-up: species or system C57Bl/6j mice; conditions: delivered to the mouse retina using a rAAV2 vector
Procedure: Next, the optimal copy number of each riboswitch was cloned into a rAAV GFP reporter cassette and packaged in an AAV2 capsid. Each GFP-riboswitch cassette was injected intravitreally into C57Bl/6j mice in combination with an AAV2 control vector harboring a non-inducible mCherry reporter gene. Four weeks post-injection, mCherry and GFP fluorescence levels were quantified in vivo using a custom ‘Multiline’ confocal scanning laser ophthalmoscope (cSLO). Mice subsequently received a dose of 1000 mg/kg of its activating ligand (tetracycline, theophylline), and fluorescence levels were quantified 2 and 24 hours post-gavage.

Row | Molecule | Optimal Copy number [1] | Response to ligand in cell culture (firefly luminescence) [2] | Dynamic Range [2] | Response to ligand in vivo [3] | Dynamic range compared with similar riboswitches known in the art [2]
1 | K19: Tetracycline ON switch riboswitch, SEQ ID NO: 15 (nucleic acid) CAAACAAACAAAGGCGCGTCCTGGATTCGTGGTAAAACATACCAGATTTCGATCTGGAGAGGTGAAGAATACGACCACCTGTAGTATCCAGCTGATGAGTCCCAAATAGGACGAAACGCGCTAAACAAACAAAC | 1 | responded to a ligand | 1.5-fold | responded to a ligand | –
2 | Tet-SLIM: tetracycline-responsive self-targeting ligand inactivating microRNA (SLIM) switch, SEQ ID NO: 17 (nucleic acid) CTAGCACGGGTCCCTAAAACATACCGTGAGCGCGAAAGCGCCCCCATTTTGAGTTAGTGAAGCCACAGATGTAACTCAAAATGGGGGCGCTTTCCCGCCTACGGAGAGGTGAAGAATACGACCACCTAGAAGCTTATTGGTACATGATAACACCCCAAAATCGAAGCACTTCAAAAACACCCCAAAATCGAAGCACTTCAAAAACACCCCAAAATCGAAGCACTTCAAAAACACCCCAAAATCGAAGCACTTCAGTCTCAGGCATCGTACGATGTCGACCTGCAGG | 1 | – | 2.3-fold | – | increased dynamic range
3 | Theo6HDV: Theophylline OFF switch riboswitch, SEQ ID NO: 13 (nucleic acid) ATGGCCGGCATGGTCCCAGCCTCCTCGCTGGCGCCGGCTGGGCAACCACATACCAGCCGAAAGGCCCTTGGCAGGTGGGCGAATGGGACGCACAAATCTCTCTAGCTTCCCAGAGAGAAGCGAGAGAAAAGTGGCTCTC | – | responded to a ligand | – | responded to a ligand | –
4 | GuaM8HDV: Guanine OFF switch riboswitch, SEQ ID NO: 14 (nucleic acid) ATGGCCGGCATGGTCCCAGCCTCCTCGCTGGCGCCGGCTGGGCAATGCTATAATCGCGTGGATATGGCACGCAAGTTTCTACCGGGCACCGTAAATGTCCGACTAGTAGCGAATGGGACGCACAAATCTCTCTAG | – | responded to a ligand | – | responded to a ligand | –
5 | L2Bulge18tc: Tetracycline ON switch riboswitch, SEQ ID NO: 12 (nucleic acid) CTCGAGGCGATCGCAAACAAACAAAGCTGTCACCGGATGTGCTTTCCGGTCTGATGAGTCCGTTGTCCAAAACATACCAGATTTCGATCTGGAGAGGTGAAGAATTCGACCACCTGGACGAGGACGGAGGACGAAACAGCAAAAAGAAAAATAAAAATTAATTAATCTTGGGCCC | 3 | responded to a ligand | 4.3-fold | responded to a ligand | –
6 | Theo-SLIM: theophylline-responsive self-targeting ligand inactivating microRNA (SLIM) switch, SEQ ID NO: 1 (nucleic acid) CGTATCAGCAGGTCCCATAAGCTTTCGACAATTAACGAGTGTGTACTCGTTCTATCATCTCACAGTTAAAGTCGGGAGAATAGGAGCCGCACGGGTCCTGATACCAGCGTGAGCGGAGAGAATCTTCTTTCTGTCTATTAGTGAAGCCACAGATGTAATAGACAGAAAGAAGATTCTCTCCGCCTACGCCCTTGGCAGCACCGTACGGTTCGATC | 1 | – | 10.9-fold | – | increased dynamic range
7 | L2Bulge9: Theophylline-responsive riboswitch, SEQ ID NO: 11 (nucleic acid) CTCGAGGCGATCGCAAACAAACAAAGCTGTCACCGGATGTGCTTTCCGGTCTGATGAGTCCGTTGTCCAATACCAGCATCGTCTTGATGCCCTTGGCAGTGGATGGGGACGGAGGACGAAACAGCAAAAAGAAAAATAAAAATTTTTTTTTTAATTAATCTTGGGCCC | 3 | responded to a ligand | 1.7-fold | responded to a ligand | –

— patent publication US12286631B2, “Riboswitch modulated gene therapy for retinal diseases” (The Medical College of Wisconsin, Inc., priority 2017, dated 2025)
